{"source": "patent US12383572B2", "about": "“Administration of an anti-activin-a compound to a subject” (AMGEN INC., priority 2013, dated 2025)", "molecules": {"B1": {"name": "sActRIIB: extracellular domain of human activin type-2B receptor fused to IgG2 Fc; full length SEQ ID NO: 21 (Table 9) (protein, listed as Homo sapiens)", "chain": "ETRWCIYYNANWELERTNQSGLERCEGEQDKRLHCYASWRNSSGTIELVKKGCWLDDFNCYDRQECVATEENPQVYFCCCEGNFCNERFTHLPEAGGPEVTYEPPPTAPTGGGGSVECPPCPAPPVAGPSVFLFPPKPKDTLMISRTPEVTCVVVDVSHEDPEVQFNWYVDGVEVHNAKTKPREEQFNSTFRVVSVLTVVHQDWLNGKEYKCKVSNKGLPAPIEKTISKTKGQPREPQVYTLPPSREEMTKNQVSLTCLVKGFYPSDIAVEWESNGQPENNYKTTPPMLDSDGSFFLYSKLTVDKSRWQQGNVFSCSVMHEALHNHYTQKSLSLSPGK"}}, "key": {"[1]": {"system": "testicular tumors in inh-KO mice", "test": "Testicular tumor mass by necropsy in male inh-KO mice", "assay_type": "in vivo, mouse", "conditions": "8-week-old male inh-KO mice, single injection 30 mg/kg SC, necropsy 14 days after", "protocol": "Inh-KO mice. 12-week-old female and 8-week-old male inh-KO mice with fully established ovarian or testicular tumors received a single injection of PBS or sActRIIB (30 mg/kg, SC). As a control, age-matched wild-type littermates received a single injection of PBS. Ovarian and testicular organ weights were determined by necropsy 14 days after the injection."}, "[2]": {"system": "VEGF, Ang-1, osteopontin, CD31 in TOV-21G tumors", "test": "Immunostaining of angiogenesis factors and CD31 in TOV-21G xenograft tumor sections", "assay_type": "in vivo, human", "conditions": "treated vs untreated sections", "protocol": "TOV-21G xenograft. 5×10^6 TOV-21G ovarian cancer cells were implanted subcutaneously into individual female athymic nu/nu mice (Harlan). Treatment was initiated at day 12 after tumor implantation, when the average tumor volume reached approximately 150 mm^3. The mice received PBS, sActRIIB (30 mg/kg, SC, 1×/week) or activin-A antibody (30 mg/kg, SC, 2×/week). In a separate chemotherapy combination experiment, the mice were treated with PBS, sActRIIB (10 mg/kg, SC, 1×/week), 5-FU (50 mg/kg, IP, 3 cycles, 4 daily injections per cycle) or sActRIIB and 5-FU combination at the same doses above. Zinc-formalin fixed paraffin tumor tissue sections of 4 μm in thickness were prepared. The sections were subjected to antigen retrieval by microwave 3 min in Unmask solution (Vector H-3300) followed by incubation in 10 μg/ml Proteinase-K for 20 min and in 1% H2O2 in dH2O for 10 min at room temperature. The sections were further incubated in 0.1% Tween-20 in PBS for 3 min to permeabilize the cell membrane and in goat serum for 30 min to block non-specific binding. The sections were then incubated at room temperature with specific primary antibody for 3 hours followed by incubation in biotinylated or fluorescently labeled secondary antibody. […] The immunostained tissue sections were analyzed and photographed using a Nikon Eclipse 90i microscope equipped with DS-Ril camera. […]"}, "VEGF and Ang-1": {"system": "VEGF and Ang-1", "test": "VEGF and Ang-1 immunostaining of inh-KO ovarian and testicular tumor sections", "assay_type": "in vivo, mouse", "conditions": "ovarian and testicular tumors, inh-KO mice", "protocol": "Zinc-formalin fixed paraffin tumor tissue sections of 4 μm in thickness were prepared. The sections were subjected to antigen retrieval by microwave 3 min in Unmask solution (Vector H-3300) followed by incubation in 10 μg/ml Proteinase-K for 20 min and in 1% H2O2 in dH2O for 10 min at room temperature. The sections were further incubated in 0.1% Tween-20 in PBS for 3 min to permeabilize the cell membrane and in goat serum for 30 min to block non-specific binding. The sections were then incubated at room temperature with specific primary antibody for 3 hours followed by incubation in biotinylated or fluorescently labeled secondary antibody. Substrate developed in Vector SG kit (SK-4700) or DAB and nuclear-counterstained in Vector Fast Red (H-3403) or in hematoxylin. The immunostained tissue sections were analyzed and photographed using a Nikon Eclipse 90i microscope equipped with DS-Ril camera. The primary antibodies used and their dilutions are as follows: VEGF (BD Pharmingen 550549) 1:20 or VEGF (Abcam ab46154) 1:100, active caspase-3 (Abcam ab32042) 1:50, Ang-1 (Abcam ab8451) 1:500, osteopontin (Abcam ab8448) 1:200, CD-31 (Abcam ab56299) 1:100, E-cadherin (Abcam ab76319) 1:80. For immunofluorescence staining, FITC-conjugated secondary antibody (Invitrogen) was added at 1:50 dilution in PBS and incubated for 30 min. Cell nuclei were counterstained with Vectashield PE (Vector)."}, "E-cadherin": {"system": "E-cadherin", "test": "E-cadherin Western blot and immunostaining in inh-KO ovarian tumors", "assay_type": "in vivo, mouse", "conditions": "inh-KO mice", "protocol": "Protein extracts were prepared from cell cultures or tissues in T-PER tissue protein extraction reagent (Pierce) containing a mixture of protease inhibitors (Roche). A pool of 50 μg total protein for each group containing equal amounts of protein extract isolated from individual animals was separated by NuPAGE 4-12% Bis-Tris gel (Invitrogen) and transferred to PVDF. The membranes were probed with primary antibodies against total Smad2, p-Smad2 or E-cadherin (1:1000; Cell Signaling), endoglin, osteopontin (1:500; R & D Systems), IGFBP-1, IGFBP-2 (1:500; Abcam) followed by HRP-conjugated secondary antibody (1:2000; Cell Signaling). The membranes were stripped and re-probed with antibody against α-tubulin (1:1000; Cell Signaling).\nZinc-formalin fixed paraffin tumor tissue sections of 4 μm in thickness were prepared. The sections were subjected to antigen retrieval by microwave 3 min in Unmask solution (Vector H-3300) followed by incubation in 10 μg/ml Proteinase-K for 20 min and in 1% H2O2 in dH2O for 10 min at room temperature. The sections were further incubated in 0.1% Tween-20 in PBS for 3 min to permeabilize the cell membrane and in goat serum for 30 min to block non-specific binding. […] The immunostained tissue sections were analyzed and photographed using a Nikon Eclipse 90i microscope equipped with DS-Ril camera. […]"}, "[3]": {"system": "ovarian and testicular tumors", "test": "Light microscopy (H & E) of inh-KO ovaries and testes", "assay_type": "in vivo, mouse", "text": "Testes and ovaries from inh-KO mice were fixed with Zinc-formalin. Tissue sections were subjected to H & E staining and then examined with a Nikon Eclipse 90i microscope."}, "VEGF": {"system": "VEGF", "test": "Serum VEGF immunoassay in inh-KO mice", "assay_type": "in vivo, mouse", "conditions": "inh-KO mice with advanced tumors, single dose", "protocol": "The serum VEGF levels in inh-KO mice were measured by using immunoassay kit (R & D Systems), and the levels of human VEGF and Ang-1 in cell line culture medium were quantified using ELISA kits purchased from Invitrogen (VEGF) and R & D Systems (Ang-1), by following the manufacturers' recommended protocols."}, "TOV-21G xenografts": {"system": "TOV-21G xenografts", "test": "TOV-21G xenograft in abdominal flank, hu-sActRIIB-Fc alone or with 5-FU: tumor growth", "assay_type": "in vivo, human", "conditions": "52 days after tumor cell injection, versus vehicle-treated tumor-bearing group", "protocol": "In another experiment, athymic nude mice received TOV-21G xenografts in the abdominal flank. After 14 days, subcutaneous hu-sActRIIB-Fc was administered weekly alone or in combination with 5-FU."}}}
{"molecule": "B1", "values": [{"measurement": "testicular tumor mass", "setting": "[1]", "result": "dramatic regression of testicular tumor masses to the WT control levels"}, {"measurement": "CD31 immunostaining (newly formed microvessels)", "setting": "[2]", "result": "lack of such new microvessels"}, {"measurement": "VEGF and Ang-1 immunostaining in tumor sections", "setting": "[2]", "result": "virtually none in the sActRIIB-treated sections"}, {"measurement": "VEGF and Ang-1 immunoreactivities in tumor sections", "setting": "VEGF and Ang-1", "result": "completely abolished the VEGF and Ang-1 inductions in the tumors"}, {"measurement": "E-cadherin immunoreactivity in ovarian sections", "setting": "E-cadherin", "result": "reappearance of distinctive E-cadherin immunoreactivity"}, {"measurement": "E-cadherin protein in ovarian tumors (Western blot)", "setting": "E-cadherin; single injection", "result": "dramatically restored the lost E-cadherin"}, {"measurement": "ovarian morphology by light microscopy", "setting": "[3]; female inh-KO mice", "result": "the ovaries were normal in size and contained many recognizable follicles, minimal tumor cell invasion and few hemorrhagic lesions"}, {"measurement": "testicular morphology by light microscopy", "setting": "[3]; male inh-KO mice", "result": "the testes were normal in size and filled with seminiferous tubules, although the number of spermatogonia was less than normal and a few small areas still contained tumor cells"}, {"measurement": "serum VEGF", "setting": "VEGF", "result": "rapidly lowered the elevated VEGF to WT control levels"}, {"measurement": "tumor growth reduction", "setting": "TOV-21G xenografts", "result": 43, "unit": "%"}]}
